# From WO2022102744A1 (dated 2022)
# B1: anti-spike protein monoclonal antibody clone A1-1C7 (antibody, V domains shown)
# VH: EVQLQQSGTELVTPGASVKLSCTASGFNIKDTYVQWVKQRPEQGLEWIGRIDPASDNTFYASKFQGKASLSSDTSSNTAYMQLSSLTSGDTAVYYCSTYFSNFYYWGQGTPLTVSS
# VL: DIQMTQSPASLSASVGDTVTITCGASENIYGALNWYQRKKGKSPQLLIYGATNLADGMSSRFSGRGSGRQYFLKISSLHPDDVATYYCQNVLSVPWTFGGGTKLEIK
# notes: also called MAb2B (related to clone A1-1C7)
# Target: T1, SARS-CoV-2 spike protein (full S1 and S2 regions, furin recognition sequence removed, histidine tag) (SARS-CoV-2, UniProt P0DTC2 14-1273)
# T1 construct: whole, on cells; also called Exo-S; spike protein positive exosome
# Assay: competition ELISA: ACE2 on plate, Exo-S with titrated antibody; competitor ACE2
binder,measurement,value
B1,IC50,4.8 ng/mL
